Test results: US20240034786A1 (WUXI BIOLOGICS IRELAND, published 2024)

Assays:
[1] = biological target: T1, Human P-cadherin on cells (human, UniProt P22223 108-829); test: FACS on DU-145 cells
T1 construct: whole, on cells; Endogenous P-cadherin on tumour cell lines; also called hPro1
Procedure: (§1) Binding of the test antibodies to P-cadherin expressed on cells was determined by flow cytometry analysis. […] 1×10⁵ cells/well (100 μL) were added to each well of a 96-well U-plate (Corning, #3799) and centrifuged at 1500 rpm (Eppendorf, #5810R) for 5 minutes before removing the supernatant. Antibodies serially diluted in 1% BSA/1×PBS (Ca+/Mg+) were added at 100 μL/well to the pelleted cells and incubated at 4° C. for 1 hour. Anon-related hIgG1 antibody was used as an isotype control. Cells were washed two times with 180 μL/well of 1% BSA/1×PBS (Ca+/Mg+) by centrifugation at 1500 rpm for 5 minutes at 4° C. Pelleted cells were resuspended in 100 μL/well Alexa647 conjugated Goat anti-human IgG Fc (Jackson, #109-605-098) 1:500 diluted in 1% BSA/1×PBS (Ca+/Mg+) for 30 minutes at 4° C. in the dark. Cells were then washed two times as described above. After the final wash, cells were resuspended in 100 μL 1% BSA/1×PBS (Ca+/Mg+) and fluorescence values were measured with a FACS Canto II cytometer (BD Biosciences). The amount of cell surface bound anti-P-cadherin antibody was assessed by measuring the mean fluorescence (MFI). The FACS raw data were analyzed by FlowJo software, wells containing no antibody or secondary antibody only were used to establish background fluorescence. Binding EC50 values were obtained by the four-parameter non-linear regression analysis using GraphPad Prism6 software.

[2] = biological target: T1, Human P-cadherin on cells; test: FACS on DU-145 cells; remark: listed apart in the source
Procedure: as §1

[3] = biological target: T1, Human P-cadherin on cells; test: FACS on HCT-116 cells
Procedure: as §1
Binding of the antibodies to human P-cadherin expressed on cells was determined by flow cytometry analysis.

[4] = biological target: T1, Human P-cadherin on cells; test: cell-based or functional assay
[5] = biological target: T1, Human P-cadherin on cells; test: cell-based or functional assay; remark: listed apart in the source

T1 sequence (P22223 108-829): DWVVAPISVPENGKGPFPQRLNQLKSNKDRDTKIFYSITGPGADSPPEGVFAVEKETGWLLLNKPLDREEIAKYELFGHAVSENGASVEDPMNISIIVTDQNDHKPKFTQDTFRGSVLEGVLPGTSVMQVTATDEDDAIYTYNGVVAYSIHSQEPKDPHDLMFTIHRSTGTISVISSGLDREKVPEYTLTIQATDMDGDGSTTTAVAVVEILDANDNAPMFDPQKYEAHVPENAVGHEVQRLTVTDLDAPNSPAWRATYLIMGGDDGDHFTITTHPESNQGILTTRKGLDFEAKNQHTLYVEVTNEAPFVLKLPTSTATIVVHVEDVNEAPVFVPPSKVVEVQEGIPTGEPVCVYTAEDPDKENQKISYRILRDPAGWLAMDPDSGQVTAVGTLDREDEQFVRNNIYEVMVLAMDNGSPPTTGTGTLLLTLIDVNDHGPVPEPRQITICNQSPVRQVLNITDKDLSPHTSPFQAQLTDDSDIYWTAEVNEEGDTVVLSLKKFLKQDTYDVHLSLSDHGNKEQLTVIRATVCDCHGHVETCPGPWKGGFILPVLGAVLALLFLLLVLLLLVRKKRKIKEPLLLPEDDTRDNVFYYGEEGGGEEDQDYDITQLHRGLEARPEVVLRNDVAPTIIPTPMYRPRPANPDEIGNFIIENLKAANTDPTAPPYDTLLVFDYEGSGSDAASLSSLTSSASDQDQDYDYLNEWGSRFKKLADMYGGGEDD

Binder | EC50 [1] | Max MFI [1] | EC50 [2] | Max MFI [2] | EC50 [3] | Max MFI [3] | internalization, Fab-ZAP on HCC-1954, IC50 [4] | internalization, Fab-ZAP on HCC-1954, Max Inh % [4] | internalization, Fab-ZAP CTG assay on HCC-1954, IC50 [5]
W3195-1.53.1-uIgG1L (antibody, Fully human IgG1 from an OmniRat hybridoma, converted to human IgG1; also called parental antibody; parental mAb) heavy: not shown light: SYELTQPPSVSVSPGQTANITCSGDKLGDKFASWYQQKSGQSPVVVIYQDNKRPSGFPERFSGSNSGNTATLTISGTQAMDEADYYCQAWDSSIVVFGGGTKLTVLGQPKAAPSVTLFPPSSEELQANKATLVCLISDFYPGAVTVAWKADSSPVKAGVETTTPSKQSNNKYAASSYLSLTPEQWKSHRSYSCQVTHEGSTVEKTVAPTECS | 50 pM | 2090 | – | – | – | – | – | – | –
W3195-1.53.1-p5-uIgG1LV320 (antibody, V domains shown, also called W3195-1.53.1-p5-uIgG1V320; W3195-p5-V320 antibody) VH: QVQLQESGPGLVKPSETLSLTCTVSGGSVISDNYYWTWVRQPPGKGLEFIGYIYYRGSTNYNPSLKNRVIISIDTSRNQFSLDLNSVTAADTAVYYCARDRRTGQSLPFDNWGQGTLVTVSS VL: SYELTQPPSVSVSPGQTAQITCSGDKLGDKFASWYQQKSGQSPVVVIYQDNKRPSGFPERFSGSNSGNTATLTISGTQAMDEADYYCQAWDSSIVVFGGGTKLTVLG | – | – | 120 pM | 2240 | 170 pM | 4170 | 58 pM | 82% | –
W3195-1.53.1-p6-uIgG1LV320 (antibody, V domains shown, also called W3195-1.53.1-p6-uIgG1V320; W3195-p6-V320 antibody) VH: QVQLQESGPGLVKPSETLSLTCTVSGGSVISDNYYWTWVRQPPGKGLEFIGYIYYRGSTNYNPSLKNRVIISIDTSRNQFSLDLNSVTAADTAVYYCARDRRTGTSLPFDNWGQGTLVTVSS VL: SYELTQPPSVSVSPGQTAQITCSGDKLGDKFASWYQQKSGQSPVVVIYQDNKRPSGFPERFSGSNSGNTATLTISGTQAMDEADYYCQAWDSSIVVFGGGTKLTVLG | – | – | 100 pM | 2290 | 140 pM | 4180 | 63 pM | 79% | –
W3195-1.53.1-p7-uIgG1LV320 (antibody, V domains shown, also called W3195-1.53.1-p7-uIgG1V320; W3195-p7-V320 antibody) VH: QVQLQESGPGLVKPSETLSLTCTVSGGSVISDNYYWTWVRQPPGKGLEFIGYIYYRGSTNYNPSLKNRVIISIDTSRNQFSLDLNSVTAADTAVYYCARDRRTGSSLPFDNWGQGTLVTVSS VL: SYELTQPPSVSVSPGQTAQITCSGDKLGDKFASWYQQKSGQSPVVVIYQDNKRPSGFPERFSGSNSGNTATLTISGTQAMDEADYYCQAWDSSIVVFGGGTKLTVLG | – | – | 90 pM | 2280 | 140 pM | 4230 | 59 pM | 79% | –
W3195-1.53.1-p4-uIgG1LV320 (antibody, V domains shown, V320 = IgG1 Fc with L234A/L235A; also called W3195-1.53.1-p4-uIgG1V320; W3195-p4-V320 antibody) VH: QVQLQESGPGLVKPSETLSLTCTVSGGSVISDNYYWTWVRQPPGKGLEFIGYIYYRGSTNYNPSLKNRVIISIDTSRNQFSLDLNSVTAADTAVYYCARDRRTGNALPFDNWGQGTLVTVSS VL: SYELTQPPSVSVSPGQTAQITCSGDKLGDKFASWYQQKSGQSPVVVIYQDNKRPSGFPERFSGSNSGNTATLTISGTQAMDEADYYCQAWDSSIVVFGGGTKLTVLG | – | – | 120 pM | 2160 | 140 pM | 4190 | 63 pM | 80% | –
W3195-1.53.1-p3-uIgG1L (antibody, also called W3195-p3 antibody) heavy: not shown light: SYELTQPPSVSVSPGQTANIACSGDKLGDKFASWYQQKSGQSPVVVIYQDNKRPSGFPERFSGSNSGNTATLTISGTQAMDEADYYCQAWDSSIVVFGGGTKLTVLGQPKAAPSVTLFPPSSEELQANKATLVCLISDFYPGAVTVAWKADSSPVKAGVETTTPSKQSNNKYAASSYLSLTPEQWKSHRSYSCQVTHEGSTVEKTVAPTECS | 50 pM | 2140 | – | – | – | – | – | – | 20 pM
